Results reported in PMC12412572, “Natural Allelic Variations in IbCHYR1–IbZnFR Complex Regulate Fusarium Root Rot Resistance in Sweet Potato”.

T1: IbZnFR (CCCH-type zinc-finger protein) (Ipomoea batatas, UniProt A0A6M2VA70 1-565)
T1 sequence: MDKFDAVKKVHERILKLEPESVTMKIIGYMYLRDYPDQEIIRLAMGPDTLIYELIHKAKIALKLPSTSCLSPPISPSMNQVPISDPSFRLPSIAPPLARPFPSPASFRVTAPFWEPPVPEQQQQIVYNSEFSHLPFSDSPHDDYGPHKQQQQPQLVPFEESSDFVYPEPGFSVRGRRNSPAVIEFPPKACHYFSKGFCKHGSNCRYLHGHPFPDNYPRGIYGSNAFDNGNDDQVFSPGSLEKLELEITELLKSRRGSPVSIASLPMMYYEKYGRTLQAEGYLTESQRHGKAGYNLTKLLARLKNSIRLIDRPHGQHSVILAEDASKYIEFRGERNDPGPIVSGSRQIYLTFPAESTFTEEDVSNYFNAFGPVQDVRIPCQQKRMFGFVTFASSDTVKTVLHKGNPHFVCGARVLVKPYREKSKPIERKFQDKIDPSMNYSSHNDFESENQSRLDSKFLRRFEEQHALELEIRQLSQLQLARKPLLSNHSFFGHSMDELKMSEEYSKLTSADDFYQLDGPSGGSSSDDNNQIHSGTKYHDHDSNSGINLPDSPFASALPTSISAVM


Molecular target: T1, IbZnFR (CCCH-type zinc-finger protein)
Experiment: EMSA; LightShift Chemiluminescent EMSA Kit (Thermo), manufacturer's instructions; buffer, salt, pH and temperature not stated
Conditions: protein: recombinant; tags: His (pET-28a); label: 5' biotin; blunt

| Binder | binding result |
| --- | --- |
| IbCOMT promoter wt probe (dsDNA) DNA 1: AAACCGTTCTCTCTCTTCTTCTTCATCTTC DNA 2: GAAGATGAAGAAGAAGAGAGAGAACGGTTT | binds |
| IbMDAR4 promoter wt probe (dsDNA) DNA 1: ACATTTACCCGGGAGAACGGATAACG DNA 2: CGTTATCCGTTCTCCCGGGTAAATGT | binds |
| IbMRL7L promoter wt probe (dsDNA) DNA 1: CTTCTTATCCCTCTAACTTTCCTACA DNA 2: TGTAGGAAAGTTAGAGGGATAAGAAG | binds |
| IbPR5 promoter wt probe (dsDNA) DNA 1: ATTGTACTAAAAGGGAGAGGATACAAGGTT DNA 2: AACCTTGTATCCTCTCCCTTTTAGTACAAT | binds |
| IbCSLE1 promoter wt probe (dsDNA) DNA 1: ATAGTCTTTGTAGGGAGACACAGACACCAT DNA 2: ATGGTGTCTGTGTCTCCCTACAAAGACTAT | binds |
